Experimental data reported in publication PMC10910542 (Acta Crystallographica. Section D, Structural Biology, 2024).

T1: MKvar (Ramazzottius varieornatus, UniProt A0A1D1VW28)
T1 construct: gene RvY_15762-1
T1 sequence (A0A1D1VW28 1-405): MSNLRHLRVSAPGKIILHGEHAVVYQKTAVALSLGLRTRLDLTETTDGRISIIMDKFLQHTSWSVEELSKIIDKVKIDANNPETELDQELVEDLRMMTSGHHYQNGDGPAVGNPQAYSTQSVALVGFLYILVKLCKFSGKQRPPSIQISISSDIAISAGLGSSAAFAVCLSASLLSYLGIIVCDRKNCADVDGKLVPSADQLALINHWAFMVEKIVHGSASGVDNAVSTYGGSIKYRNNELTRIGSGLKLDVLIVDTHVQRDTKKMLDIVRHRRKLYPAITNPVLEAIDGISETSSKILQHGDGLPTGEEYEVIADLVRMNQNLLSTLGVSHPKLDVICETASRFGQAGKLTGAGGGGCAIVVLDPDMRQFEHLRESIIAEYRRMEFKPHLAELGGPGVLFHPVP

T2: MKmaz (Methanosarcina mazei, UniProt Q8PW39)
T2 construct: gene mvk
T2 sequence (Q8PW39 1-301): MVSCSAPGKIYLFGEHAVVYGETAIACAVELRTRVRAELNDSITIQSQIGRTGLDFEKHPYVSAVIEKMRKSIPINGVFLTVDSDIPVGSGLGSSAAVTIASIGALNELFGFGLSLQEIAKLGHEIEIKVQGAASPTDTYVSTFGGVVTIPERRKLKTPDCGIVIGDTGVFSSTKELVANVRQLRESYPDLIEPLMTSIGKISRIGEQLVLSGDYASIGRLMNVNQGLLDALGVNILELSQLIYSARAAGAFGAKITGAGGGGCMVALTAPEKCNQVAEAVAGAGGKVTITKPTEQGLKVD

B1: MKbur (Methanococcoides burtonii DSM 6242) (protein)
chain: MITCSAPGKVYLFGEHAVVYGEPAICCAVDIRTRVTVSPADTITISSSLGTTGIDFEVHPYVSAVLERFQDISSFDGVDLRISSDIPVGSGLGSSAAVTVATIKAMDTLLDLGLELDDIAKMGHEVEQNIQGTASPTDTYVCTMGGVVLIPQRKKLELIDCGILIGNTNIFSSTKELVGNVADLNERFPDVVGPVLSSIGKLSVIGEGLVNDRDYVSVGELMNIDQGLLDAIGVSCAELSSLIYAARESGAYGSKITGAGGGGCMVAISPRENVDSVAEAIGMAGGKVVVANATDIGVRVECQ
B2: MKmaz (Methanosarcina mazei Go1) (protein)
chain: T2 sequence (Q8PW39 1-301)
B3: MKvar (Ramazzottius varieornatus) (protein)
chain: T1 sequence (A0A1D1VW28 1-405)

Experiments:
[1] = target: T3, MKbur (Methanococcoides burtonii, UniProt Q12TI0); test: residual activity, coupled assay; assay type: biochemical; settings: 1.5 mM mevalonate, 3 mM ATP
T3 construct: gene mvk

[2] = target: T1, MKvar; test: residual activity, coupled assay; assay type: biochemical
[3] = target: T2, MKmaz; test: residual activity, coupled assay; assay type: biochemical
[4] = substrate: CC(O)(CCO)CC(=O)O; test: purified protein; settings: 5 mM ATP, Mg2+ 10 mM, 25 °C, racemic mevalonate
[5] = substrate: Nc1ncnc2c1ncn2[C@@H]1O[C@H](COP(=O)(O)OP(=O)(O)OP(=O)(O)O)[C@@H](O)[C@H]1O; test: purified protein; settings: 5 mM (RS)-mevalonate, Mg2+ 10 mM, 25 °C

| Molecule | % residual activity at 100 μM [1] | remaining activity at 100 µM [2] [%] | remaining activity at 100 µM [3] [%] | Km [4] [µM] | kcat [4] [s⁻¹] | kcat/Km [4] [M⁻¹ s⁻¹] | Km [5] [µM] |
| --- | --- | --- | --- | --- | --- | --- | --- |
| CC(C)=CCC/C(C)=C/COP(=O)(O)OP(=O)(O)O [geranyl pyrophosphate] | MKbur, like MKmaz, appears to be less sensitive to inhibition | < 20 | 92 | – | – | – | – |
| CC(C)=CCC/C(C)=C/CC/C(C)=C/COP(=O)(O)OP(=O)(O)O [farnesyl pyrophosphate] | MKbur, like MKmaz, appears to be less sensitive to inhibition | 0.4 | 70 | – | – | – | – |
| B1 | – | – | – | 55 ± 11 | 5 | 90000 | 331 ± 63 |
| B2 | – | – | – | 123 ± 9 | 10 | 81000 | 511 ± 48 |
| B3 | – | – | – | 237 ± 68 | 5 ± 0.8 | 21000 | 4844 ± 1413 |
